Data published in patent US20250297232A1, “BACTERIAL MYELOPEROXIDASE-CATALASE AND APPLICATIONS THEREOF” (priority 2022, published 2025).
Where a chain is given by its changes, count along the chain named. Names and notes keep the numbering of the source. “Also recorded” adds a separate entry of the source.

Experiments:
E. coli ATCC 25922 = test: Microbicidal activity: counting colonies on Petri dishes; type: cell-based; settings: 1 h contact with 1.10^6 CFU/mL, 25 mM SCN^−, pH7.4; enzyme alone: wt RbMPO 300 nM or GOxaspniger 25 nM
Experimental: 10 mL of TSB medium (pH7.4) was inoculated with a freshly obtained colony of E. coli ATCC 25922, and the culture was incubated at 37° C. and 190 rpm overnight. In the morning, 25 mL of TSB medium were inoculated with the previous day's pre-culture to obtain an OD620 nm of 0.07 at TO. When the bacterial culture reached the exponential phase, the bacterial solution was diluted 10-fold in TSB in order to reach 1.10^6 CFU/mL. This dilution was then contacted with the enzyme solution for 1 hour (in a final volume of 1 mL). Further dilutions were then made (10^−1, 10^−4, 10−5, 10^−6). 100 μL of these solutions were spread on a Petri dish containing TSB agar medium and placed at 37° C. overnight. The next day, the surviving colonies were counted and the number of CFU/mL was calculated using the formula below: […]

[1] = Heme reconstitution of apo wt and mutated RbMPOs (tryptophan fluorescence quenching); type: binding; settings: 1 μM enzyme; for k2: heme reconstitution of apo enzyme, 50 mM sodium phosphate pH7.5, 25° C.
Experimental: Sample dilutions were performed in a 50 mM pH7.5 sodium phosphate buffer.

[2] = Steady-state kinetics by stopped-flow, NaSCN (hypothiocyanate formation, 240 nm); type: biochemical; settings: for activity in presence of SCN^− (NaSCN range), in words / k2: 300 nM enzyme, 79 μM H2O2; for substrate specificity: from steady-state NaSCN, NaBr and NaCl ranges; for k2: NaSCN range, linear increase of kss
Experimental: (§1) pH- and temperature-dependent studies were carried out for each substrate.
(§2) These temperatures were reached by using a stopped-flow coupled to a cryostat.
(§3) For temperature and pH measurements, RbMPO was set at the same concentration as in the determination of steady state kinetics parameters.

[3] = Steady-state kinetics by stopped-flow, NaBr (Tau-NHBr formation, 289 nm); type: biochemical; settings: 300 nM enzyme, 79 μM H2O2; for kss/[Br^−]: NaBr range, linear (k2)
Experimental: as §1, §2, §3

[4] = Chlorination activity with APF probe, NaCl range; type: biochemical; settings: linear increase of kss, 1 μM RbMPOs, 79 μM H2O2, 10 μM APF
Excerpt: The chlorination activity of myeloperoxidases can be determined using the aminophenyl fluorescein (APF) probe. One can indeed detect the oxidation of APF (non-fluorescent) by HOCl into fluorescein, a fluorescent molecule that is detectable at λex=485 nm and λem=525 nm. According to such test, the fluorescence measured is proportional to the quantity of fluorescein, which itself is proportional to the quantity of HOCl produced by the myeloperoxidase.
Measurements of chlorination activity were herein performed in Corning 384-well clear-bottom (flat-bottom) plates with a reaction volume of 20 μL, in triplicate at 37° C., and in a 50 mM NaPi buffer at pH7.5. […] A 10 to 30 minutes kinetic was performed for each range value and the fluorescence intensity was compared to that of the standard fluorescein range. Thus, the measured fluorescence is proportional to the amount of fluorescein, which in turn is proportional to the amount of HOCl produced by the RbMPOs.
The slopes were measured at the onset of the reaction in order to be in initial velocity. From these values, it was possible to calculate the kss with the following equation: […]
where slopes in FI.pmoles^−1 corresponds to the slope of the fluorescein standard range: 2.95 10^6+1.13 10^5.

B1: GOxaspniger: glucose oxidase isolated from Aspergillus niger (e.g. CAS number: 9001-37-0) (protein, UniProt P13006 17-605, looked up)
Glucose oxidase: LPHYIRSNGIEASLLTDPKDVSGRTVDYIIAGGGLTGLTTAARLTENPNISVLVIESGSYESDRGPIIEDLNAYGDIFGSSVDHAYETVELATNNQTALIRSGNGLGGSTLVNGGTWTRPHKAQVDSWETVFGNEGWNWDNVAAYSLQAERARAPNAKQIAAGHYFNASCHGVNGTVHAGPRDTGDDYSPIVKALMSAVEDRGVPTKKDFGCGDPHGVSMFPNTLHEDQVRSDAAREWLLPNYQRPNLQVLTGQYVGKVLLSQNGTTPRAVGVEFGTHKGNTHNVYAKHEVLLAAGSAVSPTILEYSGIGMKSILEPLGIDTVVDLPVGLNLQDQTTATVRSRITSAGAGQGQAAWFATFNETFGDYSEKAHELLNTKLEQWAEEAVARGGFHNTTALLIQYENYRDWIVNHNVAYSELFLDTAGVASFDVWDLLPFTRGYVHILDKDPYLHHFAYDPQYFLNELDLLGQAAATQLARNISNSGAMQTYFAGETIPGDNLAYDADLSAWTEYIPYHFRPNYHGVGTCSMMPKEMGGVVDNAARVYGVQGLRVIDGSIPPTQMSSHVMTVFYAMALKISDAILEDYASMQ
For B1, the surviving bacteria (E. coli ATCC 25922) was 1,015,000±21,213 CFU/mL.

B2: H407A: RbMPO with active site mutation H407A, generated by site-directed mutagenesis (protein)
chain: MLFWSKRTRKHPGRKRRRLRSEQLESRQLLAADFGGYRHNIYDAEDVNDDGRVSAIDALLVINAMTSETSRDENVFTDVNGDGRRSALDALRVINRIERGDVFPIDTSGDEDLNTLLPEMPSEVRSIDGSGNNPNDHLWGSVGQRLIRMAPAAYGDGISTLAGANRPSAREVSNVLSAMNTSQVLNDRGLSAFVYVWGQFIDHDLGLTESDEHGEAIDISVPEGDLWFDPMGSGEAVIPMTRTPIADGTGTSVGNPAQQFNQITAFIDGSMVYGSDAATAERLRTFAGGRLAISDNGLLPMDESGMVIAGDVRASENVGLTAIQTLFVREHNRLADEIFAADPEATDEEIYQRARLVVASLIQSITYNEFLPALLGQRAMDSYRGYDASVNPGIANEFSTAAFRLGASTLRDEVGFMSNDGRESKDEMELKDAFFHASMLEETGIDSLLKFDASVQAQEIDLAVVDSLRNFLFGPPGAGGLDLVAMNIQRGRDHGLSDYNTTRQAYGLDRVETFDQITGDVELQQKLASLYGTVDNIDLWVGLMAEDHQHDASVGELTGLIIADQFQRTRDGDRFFYKNVLTDSEVESIERSTLADLIERNTSVDGLQENVFFMQVELRGRVILASSIPPNTMPSEVREEEIRGVSGMAIELIDASGKLVDSTVSDQHGNYRFRALSETGDYQVRLSESGEAMDVLVAHGAERIRGLDFIVLA
For B2, the k2 [1] was 1320 ± 18.9 M⁻¹ s⁻¹, the “activity in presence of SCN^− (NaSCN range), in words” value [2] was “not active; also recorded: scatter plot” and the substrate specificity [2] was “greater specificity for Br^− than for SCN^−”.

B3: H203A: RbMPO with active site mutation H203A, generated by site-directed mutagenesis (protein)
chain: B2 chain with H203A, A407H
For B3, the “kss/[Br^−]” value [3] was 73.94 ± 15.07 M⁻¹ s⁻¹, the k2 [1] was 1840 ± 167 M⁻¹ s⁻¹ and the k2 [4] was “no catalytic constant could be determined; also recorded: scatter plot”. For the same molecule, the substrate specificity [2] was “higher specificity for SCN^− than Br^−”.

B4: E316A: RbMPO with active site mutation E316A, generated by site-directed mutagenesis (protein)
chain: B2 chain with E316A, A407H
With B4 the “activity with Br^− (NaBr range), in words” value [3] was “lack of RbMPO activity”, the k2 [1] was 418+34 M−1 · s−1 and the k2 [4] was “no catalytic constant could be determined; also recorded: scatter plot”. For the same molecule, the k2 [2] was 1936+374 M^−1 · s^−1 and the substrate specificity [2] was “active only for SCN^−”.

B5: D202A, E316A: double mutant of RbMPO with active site mutations D202A and E316A (protein)
chain: B2 chain with D202A, E316A, A407H
In the case of B5, the “activity with Br^− (NaBr range), in words” value [3] is reported as “lack of RbMPO activity”, the Kd ([1]; heme reconstitution, saturation of active site by heme, pH7.5, 25° C.) is reported as 10.9 µM and the substrate specificity [2] is reported as “active only for SCN^−”.

B6: Q199A: RbMPO with active site mutation Q199A, generated by site-directed mutagenesis (protein)
chain: B2 chain with Q199A, A407H
For B6, the “kss/[Br^−]” value [3] was 78.19 ± 22.00 M⁻¹ s⁻¹, the k2 [1] was 1720 ± 133 M⁻¹ s⁻¹ and the “activity in presence of SCN^− (NaSCN range), in words” value [2] was “not active”. The substrate specificity [2] was “only active for Br”.

B7: D202A: RbMPO with active site mutation D202A, generated by site-directed mutagenesis (protein)
chain: B2 chain with D202A, A407H
For B7, the substrate specificity [2] was “higher specificity for SCN^− than Br^−”.

B8: N317M: RbMPO with active site mutation N317M, generated by site-directed mutagenesis (protein)
chain: B2 chain with N317M, A407H
With B8 the k2 [2] was 1074 ± 53 M⁻¹ s⁻¹ and the substrate specificity [2] was “higher specificity for SCN^− than Br^−”.
